This data set concerns the molecule itself. Briefly: non-reducing SDS-PAGE.

B1: MBP-tagged IAA3/SHY2 (wild type), recombinant (natural protein, Arabidopsis thaliana, UniProt Q38822 1-189, looked up)
chain: MDEFVNLKETELRLGLPGTDNVCEAKERVSCCNNNNKRVLSTDTEKEIESSSRKTETSPPRKAQIVGWPPVRSYRKNNIQSKKNESEHEGQGIYVKVSMDGAPYLRKIDLSCYKGYSELLKALEVMFKFSVGEYFERDGYKGSDFVPTYEDKDGDWMLIGDVPWEMFICTCKRLRIMKGSEAKGLGCGV
B1: the binding result is listed as “binds”.

B2: MBP-tagged IAA19/MSG2, recombinant (natural protein, Arabidopsis thaliana, UniProt O24409 1-197, looked up)
chain: MEKEGLGLEITELRLGLPGRDVAEKMMKKRAFTEMNMTSSGSNSDQCESGVVSSGGDAEKVNDSPAAKSQVVGWPPVCSYRKKNSCKEASTTKVGLGYVKVSMDGVPYLRKMDLGSSQGYDDLAFALDKLFGFRGIGVALKDGDNCEYVTIYEDKDGDWMLAGDVPWGMFLESCKRLRIMKRSDATGFGLQPRGVDE
For the protein B2, the binding result was “binds”.

Source of the values: paper doi:10.1101/2024.02.12.579961 (bioRxiv, 2024).
